Measured values taken from patent publication CN113912728A (QYUNS THERAPEUTICS CO LTD, dated 2022).
Each block holds one molecule with its values, some of them ahead of it.

Columns and labels:
[1] = molecular target: T1, 人白介素-33 (human interleukin-33) (human, UniProt O95760 112-270); assay: cell-based or functional assay
T1 sequence: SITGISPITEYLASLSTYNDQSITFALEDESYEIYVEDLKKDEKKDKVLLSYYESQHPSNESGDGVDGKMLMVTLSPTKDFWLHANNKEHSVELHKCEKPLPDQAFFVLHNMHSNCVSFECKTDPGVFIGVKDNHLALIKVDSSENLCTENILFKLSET

[2] = molecular target: T1, 人白介素-33 (human interleukin-33); assay: SPR, Biacore T200, 25℃, antibody captured on Protein A chip, IL-33 as analyte, 1:1 model
[3] = molecular target: 天然人白介素-33 (natural human interleukin-33 from HFL-1 cell lysate) (human) (UniProt O95760); assay: cell-based or functional assay
[4] = molecular target: T2, 天然人白介素-33 (natural human interleukin-33 from HFL-1 cell lysate) (human, UniProt O95760 1-270, limits assumed); assay: cell-based or functional assay
T2 sequence (looked up): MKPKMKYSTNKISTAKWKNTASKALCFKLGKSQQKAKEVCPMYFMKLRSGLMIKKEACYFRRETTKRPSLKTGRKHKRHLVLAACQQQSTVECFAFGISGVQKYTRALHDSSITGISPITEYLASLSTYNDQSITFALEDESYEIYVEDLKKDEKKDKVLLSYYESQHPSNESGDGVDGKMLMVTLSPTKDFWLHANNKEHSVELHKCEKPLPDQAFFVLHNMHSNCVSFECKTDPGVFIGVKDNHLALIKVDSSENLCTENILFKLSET

- 中和人白介素-33诱导人全血释放IFN-γ, IC50 [1]: 31.9 ng/mL
- 中和人白介素-33诱导的KU812细胞释放IL-5, IC50 [1]: 44 ng/mL
- 抑制重组人白介素-33诱导HEK Blue IL-33细胞中NF-κB/AP-1信号转导 (SEAP reporter), IC50 [1]: 6.05 ng/mL
- Kd [2]: 0.869 nM
- koff [2]: 0.000369 s⁻¹
- kon [2]: 424000 M⁻¹ s⁻¹
- 抑制天然人白介素-33诱导HEK Blue IL-33细胞中NF-κB/AP-1信号转导 (SEAP reporter), IC50 [3]: 2.5 ng/mL
Molecule: Etokimab/ANB020 (antibody)

- 抑制天然人白介素-33诱导HEK Blue IL-33细胞中NF-κB/AP-1信号转导 (SEAP reporter), IC50 [4]: 3.91 ng/mL
- 中和人白介素-33诱导人全血释放IFN-γ, IC50 [1]: 16 ng/mL
- 中和人白介素-33诱导的KU812细胞释放IL-5, IC50 [1]: 5.87 ng/mL
- 抑制重组人白介素-33诱导HEK Blue IL-33细胞中NF-κB/AP-1信号转导 (SEAP reporter), IC50 [1]: 6.67 ng/mL
- Kd [2]: 1.23 nM
- koff [2]: 0.000481 s⁻¹
- kon [2]: 392000 M⁻¹ s⁻¹
B1: QX007N(HZD78-70) (antibody, V domains shown)
VH: EVQLVESGGGLVQPGGSLRLSCAASGFSLSSYHMIWVRQAPGKGLEWVGVIYPNSNIYYATWAKGRFTISRDNSKNTLYLQMNSLRAEDTAVYYCARTIYVHVYSALSIWGQGTLVTVSS
VL: AFQMTQSPSSVSASVGDRVTITCQASESVLNEVSWYQQKPGKAPKLLIYFASKLASGVPSRFSGSGSGTDFTLTISSLQPEDFATYYCQQDWSMDNIDNAFGGGTKVEIKR
